The assay deals with Cg1978-C-His (Gip with a C-terminal His tag) (Corynebacterium glutamicum ATCC 13032 (CGP3 prophage)). The assay is described as follows: SPR. On the technique in general: Surface plasmon resonance follows binding to a sensor surface in real time, without labels.

What is called Kd is the constant that tells how readily two partners part at equilibrium. Read a high Kd as a looser complex. The koff is the first-order rate constant of dissociation. Broadly, the kon is the rate constant with which the complex forms. Higher therefore signals fast association. “GyrA-N-Strep (C. glutamicum DNA gyrase subunit A with an N-terminal Strep-tag) (from UniProt Q8NUC6 1-856) (natural protein)” came in with a Kd of 5.4 nM, a koff of 0.00092 s⁻¹ and an on-rate (kon) of 97000 M⁻¹ s⁻¹.

The record behind these values is paper doi:10.1101/2021.01.28.428610.
